# Assay results as given in PMC4128677, “Somatostatin Analogues for Receptor Targeted Photodynamic Therapy” (PLoS ONE, 2014).
# Like-named read-outs stand apart in the source and are kept apart here. Positions of bridges follow the written chain, without caps; N, C: chain ends. Non-standard residues stand in square brackets, D forms with d. Residues, ends and D or L forms follow the SMILES beside them. *: point of attachment. X1 = C=Cc1c(C)c2cc3nc(c(CC(=O)O)c4[nH]c(cc5nc(cc1[nH]2)C(C)=C5CC)c(C)c4C(=O)O)[C@@H](CCC(=O)*)[C@@H]3C
# How the values were obtained:
# sst2 = molecular target: T1, sst2 (Homo sapiens, UniProt P30874); experiment: Displacement of [125I]-SS14 binding, membrane preparations of K562 sst2+ cells
# T1 construct: expressed in transfected cells; host or cells: K562 (human erythroleukemic) cells stably transfected with LZRS-lyt2-IRES-sst2; membrane preparations
# T1 sequence (P30874 whole entry): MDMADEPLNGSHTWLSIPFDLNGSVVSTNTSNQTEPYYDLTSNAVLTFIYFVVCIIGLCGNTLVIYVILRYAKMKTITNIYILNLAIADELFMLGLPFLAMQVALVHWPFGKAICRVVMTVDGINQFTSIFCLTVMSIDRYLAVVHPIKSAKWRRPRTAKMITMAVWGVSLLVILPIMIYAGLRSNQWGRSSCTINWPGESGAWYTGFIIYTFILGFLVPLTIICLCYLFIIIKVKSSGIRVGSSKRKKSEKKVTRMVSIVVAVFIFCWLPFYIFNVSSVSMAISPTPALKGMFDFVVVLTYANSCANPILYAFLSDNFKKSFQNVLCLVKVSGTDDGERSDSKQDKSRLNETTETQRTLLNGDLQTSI
# Description: Copy DNA of the human sst2 receptor was merged into a LZRS-lyt2-IRES plasmid background (lyt2 being the mouse CD8 receptor). The calcium precipitation method was used to transfect non-adherent K562 cells with the LZRS-lyt2-IRES-sst2. Expression of lyt2 was evaluated by means of FACS analysis using FITC labeled anti-mouse CD8 antibody (BD PharMingen, Netherlands), 1∶160 diluted in FACS-buffer. Clones were grown form Lyt2 positive isolated cells. Vital clones were cultured and tested in time for stability of sst2 receptor expression, by means of both FACS analysis (using FITC labeled octreotate 200 nM) as well as sst2 mRNA expression by RT-PCR as previously described. […] K562 cells were grown in RPMI 1640 containing L-glutamine, 10% heat-inactivated FCS, 50 µg/ml penicillin and 50 µg/ml streptomycin, and were maintained in an incubator at 37°C in an humidified atmosphere of 5% CO2.
# The binding potency of Ce6-conjugates to sst2 on K562 sst2 ^+ cells was evaluated on cell membrane preparations.
# [1] = Photobleaching under 652 nm irradiation in PBS; type: physicochemical
# Description: Photobleaching measurements. The loss of photosensitizer absorbance and fluorescence during irradiation was used to monitor photobleaching. Solutions of Ce6 and Ce6-conjugates were prepared in PBS pH = 7.4. The concentration of photosensitizers were adjusted so that all absorb the same number of photons at irradiated region (O.D. = 0.014 at the λirr. = 652 nm (Biolitec pharma, UK). Data was acquired in quartz cuvettes in aerobic conditions using stirring under uniform, measured irradiation at 5 mWcm^-2. At intervals, the cuvette was removed from magnetic stirrer and absorption and fluorescence emission spectrum (λexc = 405 nm) acquired. The initial absorption bleaching rate constants (kblA) for Ce6 and conjugates were evaluated as reported.
# [2] = pH titration of fluorescence/absorbance (pKa); type: physicochemical
# Description: pH measurements. The pH titration of PBS was performed with HNO3 and NaOH over pH 4.0-8.5. The final concentration of Ce6 and Ce6-conjugates in solution was 0.8 µM. The pH was measured by Sentron pH meter (Sentron Europe, NL) and the absorption and fluorescence emission (λexc = 408 nm) profiles of solutions were recorded. The inflection point of titration curves (pKa) were evaluated as reported. Briefly, the results of fluorescence titrations are presented in terms of a plot of fluorescence intensity as a function of pH with the constant concentration of the compound used throughout measurements. However, variations of fluorescence intensity are due to at least two contributions: the changes of molar extinction coefficient (differed absorbed intensity) and the changes of quantum efficiency with pH. To eliminate the influence of the molar extinction coefficient variations, the ratio of fluorescence intensity at the peak position to the absorbance at the excitation wavelength was plotted, followed by sigmoidal function fitting procedure (Figures S2-S4).
# [3] = 1-Octanol/PBS partition coefficient; type: physicochemical
# Description: Partition coefficient. Stock solutions of Ce6 and conjugates (0.6 mM) were prepared in DMSO. Lipophilicity was characterized by their partition coefficient Poct/buffer = Coct/Cbuffer between two solvents 1-octanol (oct) and PBS, pH = 7.4 (buffer). Measurements were carried out in duplicates as described by Cunderlikova et al.
# [4] = Singlet oxygen quantum yield (SOSGR photooxidation); type: physicochemical; conditions: PBS pH = 7.4; SOSGR 1 µM; relative to ΦΔ = 0.64 of Ce6; in duplicate
# Description: Singlet Oxygen Quantum Yield Measurements. Photooxidation of Singlet Oxygen Sensor Green Reagent (SOSGR) (Molecular Probes, NL) was used to determine the singlet oxygen formation by Ce6 and Ce6-conjugates. We used SOSGR because of its high selectivity for singlet oxygen and low sensitivity to hydroxyl radicals/superoxides. Stock solution of SOSGR (5 mM) was prepared in methanol. The final concentration of SOSGR within the photosensitizer solution in PBS pH 7.4 was 1 µM. The irradiation was performed the same as for photobleaching measurements described above. The singlet oxygen quantum yields (Φ?) of conjugates in PBS were determined in duplicate by a relative method with a Φ? = 0.64 of Ce6 in the PBS at pH 7.4 as reference.
# K562 sst2+ cells [5] = experiment: Cellular uptake in K562 sst2+ and WT cells; type: cell-based, human; conditions: 1 µM; serum-free and 5% FCS medium; fluorescence of lysate, λexc = 405 nm
# Description: Stock solutions of Ce6 and Ce6-conjugates (1 mM) were dissolved in 80% DMSO and were stored in the dark at −20°C. Before experiments, the solutions were diluted to a concentration of 0.1 mM in 20% DMSO. K562 sst2+ or WT (3×10^5) in 1 ml RPMI 1640 serum-free or supplemented with 5% FCS were incubated with Ce6 or with conjugate (1 µM) for 15 min to 24 h in the dark at 37°C. After incubation, the cells were centrifuged, cell pellet dissolved in 2% SDS and fluorescence emission spectra (λexc = 405 nm) recorded. Photosensitizer concentrations were calculated in triplicate according to a calibration curve generated by mixing a known concentration of photosensitizer with a lysated control samples.
# [6] = Steady-state absorption and fluorescence in PBS; type: physicochemical; conditions: PBS pH = 7.4
# Description: Steady-State Fluorescence and Absorption Measurements. The fluorescence quantum yields (ΦF) of Ce6 and conjugates in PBS pH 7.4 were determined by a relative method. Ce6 in the buffer at pH 7.4 with the quantum yield of 0.18 [24,32,33] was used as a reference.
# The absorption profile of Ce6 and conjugate in PBS of concentration (0.06–1µM) was recorded in Shimadzu spectrophotometer (UV-2101 PC, Duisburg, Germany).
# The fluorescence emission of photosensitizers was recorded in a Perkin-Elmer spectrofluorimeter (LS 50B, Massachussetts, USA). Light at 408 nm was used for excitation. The concentration range of compounds matched to the O.D. up to 0.1.
# K562 sst2+ cells [7] = experiment: In vitro PDT phototoxicity, K562 sst2+ cells; type: cell-based, human; conditions: K562 sst2+; 5 J.cm^−2, 652 nm
# Description: (§1) In vitro PDT experiments were performed to determine the phototoxicity of free Ce6 and conjugates. K562 sst2+ and WT cells were seeded in L-polylysine-coated (10 µg/ml) 96-well (8×10^3/well) and 24-well (4×10^4/well) and incubated overnight in 5% CO2 at 37°C. […] After incubation, cells were washed. Fresh serum-free medium was added, and cells were illuminated with 652 nm to a dose from 0.5 to 5 J cm^−2 at 5 mW.cm^−2. Thereafter, serum-containing medium was added and cells were allowed to grow for an additional 3 days in 5% FCS medium. Toxicity was determined by: measurement of DNA contents using the bisbenzimide fluorescent dye (Hoechst 33258, Boehring Diagnostics, CA, USA) and measurement of mitochondrial dehydrogenase cleavage of WST-1 reagent (Roche Diagnostics, Germany), [39]. Experiments were done in triplicates.
# K562 WT cells = experiment: In vitro PDT phototoxicity, K562 WT cells; type: cell-based, human; conditions: 5 J.cm^−2, 652 nm; with or without Octreotide co-treatment
# Description: as §1
"IC50 (sst2; membrane preparations of K562 sst2+ cells, displacement by increasing concentrations of unlabeled compound, read-out: IC50, competition with specific binding of [125I]-SS14) [nM]",SMILES,"fold higher potency than conjugate 1 (sst2; ratio of IC50 values, [125I]-SS14 displacement) [×]","kblA, rate constant of initial absorption bleaching ([1]; PBS pH = 7.4, 652 nm irradiation at 5 mWcm^-2, O.D. = 0.014 at 652 nm, aerobic, stirring)","pKa, inflection point of pH titration curve ([2]; Fmax/A(λexc) versus pH, sigmoidal fit, PBS titrated with HNO3 and NaOH over pH 4.0-8.5, 0.8 µM, λexc = 408 nm)",fold higher accumulation in 1-octanol than in buffer ([3]; 1-octanol / PBS pH 7.4) [×],"logD ([3]; 1-octanol / PBS pH = 7.4, Poct/buffer = Coct/Cbuffer, stock 0.6 mM in DMSO, duplicates, read-out: LogP, logarithm of partition coefficient)","ΦΔ, singlet oxygen quantum yield [4]",uptake in sst2+ cells compared to WT cells (factor) (K562 sst2+ cells [5]),"full width at half maximum of the Q(0,0) absorption band [6] [nm]",full width at half maximum of the Soret absorption band [6] [nm],maximum of fluorescence band [6] [nm],"maximum of the Q(0,0) absorption band [6] [nm]",maximum of the Soret absorption band [6] [nm],"ΦF, fluorescence quantum yield ([6]; relative method, Ce6 (0.18) as reference, excitation 408 nm)",effect of Octreotide co-treatment (10^−5 M) on phototoxicity (K562 sst2+ cells [7]),PDT toxicity in K562 WT cells (K562 WT cells),photostability [1],"pKa, inflection point of pH titration curve [2]",logD ([3]; pH 7.4)
–,"C=Cc1c(C)c2cc3nc(c(CC(=O)O)c4[nH]c(cc5nc(cc1[nH]2)C(C)=C5CC)c(C)c4C(=O)O)[C@@H](CCC(=O)N[C@H](Cc1ccccc1)C(=O)N[C@H]1CSSC[C@@H](C(=O)N[C@H](C(=O)N[C@@H](CCCCN)C(=O)N[C@@H](CCCCN)C(=O)N[C@@H](CCCCN)C(=O)N[C@H](Cc2ccccc2)C(=O)N[C@H]2CSSC[C@@H](C(=O)N[C@H](C(=O)O)[C@@H](C)O)NC(=O)[C@H]([C@@H](C)O)NC(=O)[C@H](CCCCN)NC(=O)[C@@H](Cc4c[nH]c5ccccc45)NC(=O)[C@H](Cc4ccc(O)cc4)NC2=O)[C@@H](C)O)NC(=O)[C@H]([C@@H](C)O)NC(=O)[C@H](CCCCN)NC(=O)[C@@H](Cc2c[nH]c4ccccc24)NC(=O)[C@H](Cc2ccc(O)cc2)NC1=O)[C@@H]3C [Conjugate 2, Ce6-[Tyr3]-octreotate-K3-[Tyr3]-octreotate] (X1-[dF]CY[dW]KTCTKKK[dF]CY[dW]KTCT-OH; disulfide 2-7, 13-18)",~5,22.70 x 10^−2 J^−1 cm^2,6.28±0.035,> 600,2.82 ± 0.34,0.59±0.03,no difference,26,42,665,661,405,0.03,not inhibited by Octreotide co-treatment,comparable with the PDT activity on K562 sst2+ cells,–,–,–
68,"C=Cc1c(C)c2cc3nc(c(CC(=O)O)c4[nH]c(cc5nc(cc1[nH]2)C(C)=C5CC)c(C)c4C(=O)O)[C@@H](CCC(=O)N[C@@H](CCCCN)C(=O)N[C@@H](CCCCN)C(=O)N[C@@H](CCCCN)C(=O)N[C@H](Cc1ccccc1)C(=O)N[C@H]1CSSC[C@@H](C(=O)N[C@H](C(=O)O)[C@@H](C)O)NC(=O)[C@H]([C@@H](C)O)NC(=O)[C@H](CCCCN)NC(=O)[C@@H](Cc2c[nH]c4ccccc24)NC(=O)[C@H](Cc2ccc(O)cc2)NC1=O)[C@@H]3C [Conjugate 1, Ce6-K3-[Tyr3]-octreotate] (X1-KKK[dF]CY[dW]KTCT-OH; disulfide 5-10)",–,–,–,–,–,–,–,–,–,–,–,–,–,–,–,higher photostability,5.38±0.0615,0.679 ± 0.04
